These results are taken from paper PMC3854527.

For one data set, the target named is T1, Sub2p wt (Saccharomyces cerevisiae, UniProt Q07478 1-446).
T1 sequence: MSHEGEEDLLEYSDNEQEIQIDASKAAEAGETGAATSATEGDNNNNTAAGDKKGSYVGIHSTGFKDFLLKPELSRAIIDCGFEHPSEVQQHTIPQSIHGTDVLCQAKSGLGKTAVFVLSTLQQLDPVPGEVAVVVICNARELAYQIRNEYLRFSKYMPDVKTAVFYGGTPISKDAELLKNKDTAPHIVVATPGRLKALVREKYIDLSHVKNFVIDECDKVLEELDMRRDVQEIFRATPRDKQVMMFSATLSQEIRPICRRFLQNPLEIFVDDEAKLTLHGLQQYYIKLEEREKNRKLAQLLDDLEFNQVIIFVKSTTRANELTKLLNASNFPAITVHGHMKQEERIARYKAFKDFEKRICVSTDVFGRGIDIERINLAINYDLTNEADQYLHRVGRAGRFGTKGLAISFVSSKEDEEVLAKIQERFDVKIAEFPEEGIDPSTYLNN
The experiment in a line: EMSA.

The next data set addresses T2, Sub2p Y12S (Saccharomyces cerevisiae, UniProt Q07478 1-446, Y12S).
T2 sequence: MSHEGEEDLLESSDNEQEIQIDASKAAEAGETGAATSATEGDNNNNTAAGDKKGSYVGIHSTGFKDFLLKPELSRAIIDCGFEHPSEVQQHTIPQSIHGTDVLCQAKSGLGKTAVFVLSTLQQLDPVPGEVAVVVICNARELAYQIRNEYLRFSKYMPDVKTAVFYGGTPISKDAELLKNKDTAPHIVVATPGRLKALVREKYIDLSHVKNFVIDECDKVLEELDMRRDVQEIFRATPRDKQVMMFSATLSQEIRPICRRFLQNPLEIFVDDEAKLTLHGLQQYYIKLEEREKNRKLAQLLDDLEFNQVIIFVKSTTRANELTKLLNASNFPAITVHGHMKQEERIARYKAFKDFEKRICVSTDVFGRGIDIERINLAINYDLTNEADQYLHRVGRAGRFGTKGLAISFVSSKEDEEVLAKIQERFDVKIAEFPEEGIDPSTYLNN
The experiment in a line: EMSA. On the technique in general: A gel shift assay detects complexes by their altered migration in electrophoresis.

Regarding AGCACCGUAAAGC (ssRNA) [13-mer ssRNA], the binding result in the data set with Sub2p wt and with Sub2p Y12S was “binds” in each case.
